In the experiment the target is recombinant soluble full-length human TDP-43 (transactive response DNA binding protein-43) (Homo sapiens (Human)., UniProt Q13148). In words: SPR. In general terms: In SPR one partner is held on a chip, and binding of the other changes the refractive index at the surface.

As a reminder, the Kd is the constant that tells how readily two partners part at equilibrium.

recombinant soluble full-length human TDP-43 (transactive response DNA binding protein-43), sequence (Q13148 whole entry): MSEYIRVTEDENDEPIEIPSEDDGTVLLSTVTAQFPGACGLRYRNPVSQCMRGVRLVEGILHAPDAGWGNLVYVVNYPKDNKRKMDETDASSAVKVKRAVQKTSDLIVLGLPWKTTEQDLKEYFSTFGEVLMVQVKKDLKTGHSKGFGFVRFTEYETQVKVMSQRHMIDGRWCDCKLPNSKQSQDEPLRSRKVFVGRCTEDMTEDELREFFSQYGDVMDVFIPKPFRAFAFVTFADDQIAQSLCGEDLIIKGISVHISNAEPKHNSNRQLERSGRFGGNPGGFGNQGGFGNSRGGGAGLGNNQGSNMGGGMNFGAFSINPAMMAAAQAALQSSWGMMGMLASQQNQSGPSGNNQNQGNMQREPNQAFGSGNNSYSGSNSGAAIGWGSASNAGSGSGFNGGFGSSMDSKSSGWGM

B1: ACI-5891 mouse IgG2a mAb produced with the bicistronic IRES-LC/HC expression cassette (antibody, V domains shown)
VH: EVQLQQSGPELVKPGASVKISCKTSGFTFTEYSMHWVKQSHGKSLEWIGGINPNNGGTSYNQKFKGKATLTVDKSSSTAYMELRSLTSEDSAVYYCARESWGQGTTLTVSS
VL: not shown
Consider B1, for which the Kd was 90 pM.

B2: ACI-5891 human IgG1 chimeric mAb produced with the bicistronic IRES-LC/HC expression cassette (antibody, V domains shown)
VH: B1 VH
VL: not shown
On to B2, for which the Kd stood at 92 pM.

B3: anti-human TDP-43 mAb ACI-5891, mouse IgG2a, conventionally produced reference mAb (antibody, V domains shown)
VH: B1 VH
VL: not shown
As to B3, the Kd was 92 pM.

B4: ACI-5891 human IgG1 chimeric reference mAb, conventionally produced (antibody, V domains shown)
VH: B1 VH
VL: not shown
For the molecule B4, the dissociation constant (Kd) is 87 pM.

The values above are taken from paper PMC12432895 (Molecular Therapy, 2025).
